# Measured values: PMC8420271 (The EMBO Journal, 2021)
# B1: GST-GSDMD (full-length human GSDMD) (natural protein)
# chain: MGSAFERVVRRVVQELDHGGEFIPVTSLQSSTGFQPYCLVVRKPSSSWFWKPRYKCVNLSIKDILEPDAAEPDVQRGRSFHFYDAMDGQIQGSVELAAPGQAKIAGGAAVSDSSSTSMNVYSLSVDPNTWQTLLHERHLRQPEHKVLQQLRSRGDNVYVVTEVLQTQKEVEVTRTHKREGSGRFSLPGATCLQGEGQGHLSQKKTVTIPSGSTLAFRVAQLVIDSDLDVLLFPDKKQRTFQPPATGHKRSTSEGAWPQLPSGLSMMRCLHNFLTDGVPAEGAFTEDFQGLRAEVETISKELELLDRELCQLLLEGLEGVLRDQLALRALEEALEQGQSLGPVEPLDGPAGAVLECLVLSSGMLVPELAIPVVYLLGALTMLSETQHKLLAEALESQTLLGPLELVGSLLEQSAPWQERSTMSLPPGLLGNSWGEGAPAWVLLDECGLELGEDTPHVCWEPQAQGRMCALYASLALLSGLSQEPH
# Molecular target: Myc-tagged SARS-CoV-2 nucleocapsid (SARS-CoV-2, UniProt P0DTC9 1-419)
# Assay: co-IP
row,Binder,binding result
1,FLAG-tagged full-length GSDMD (natural protein) MGSAFERVVRRVVQELDHGGEFIPVTSLQSSTGFQPYCLVVRKPSSSWFWKPRYKCVNLSIKDILEPDAAEPDVQRGRSFHFYDAMDGQIQGSVELAAPGQAKIAGGAAVSDSSSTSMNVYSLSVDPNTWQTLLHERHLRQPEHKVLQQLRSRGDNVYVVTEVLQTQKEVEVTRTHKREGSGRFSLPGATCLQGEGQGHLSQKKTVTIPSGSTLAFRVAQLVIDSDLDVLLFPDKKQRTFQPPATGHKRSTSEGAWPQLPSGLSMMRCLHNFLTDGVPAEGAFTEDFQGLRAEVETISKELELLDRELCQLLLEGLEGVLRDQLALRALEEALEQGQSLGPVEPLDGPAGAVLECLVLSSGMLVPELAIPVVYLLGALTMLSETQHKLLAEALESQTLLGPLELVGSLLEQSAPWQERSTMSLPPGLLGNSWGEGAPAWVLLDECGLELGEDTPHVCWEPQAQGRMCALYASLALLSGLSQEPH,binds

# Molecular target: B1
# Assay: pull-down
row,Binder,binding result
1,caspase-1 p20 (C285A)-His / p10-His complex (complex) chain 1: NPAMPTSSGSEGNVKLCSLEEAQRIWKQKSAEIYPIMDKSSRTRLALIICNEEFDSIPRRTGAEVDITGMTMLLQNLGYSVDVKKNLTASDMTTELEAFAHRPEHKTSDSTFLVFMSHGIREGICGKKHSEQVPDILQLNAIFNMLNTKNCPSLKDKPKVIIIQAARGDSPGVVWFKD chain 2: AIKKAHIEKDFIAFCSSTPDNVSWRHPTMGSVFIGRLIEHMQEYACSCDVEEIFRKVRFSFEQPDGRAQMPTTERVTLTRCFYLFPGH,binds

# Molecular target: His-tagged SARS-CoV-2 nucleocapsid (SARS-CoV-2, UniProt P0DTC9 1-419)
# Assay: pull-down
row,Binder,binding result
1,B1,binds
2,GST-GSDMD truncation lacking aa 302-310 (natural protein) MGSAFERVVRRVVQELDHGGEFIPVTSLQSSTGFQPYCLVVRKPSSSWFWKPRYKCVNLSIKDILEPDAAEPDVQRGRSFHFYDAMDGQIQGSVELAAPGQAKIAGGAAVSDSSSTSMNVYSLSVDPNTWQTLLHERHLRQPEHKVLQQLRSRGDNVYVVTEVLQTQKEVEVTRTHKREGSGRFSLPGATCLQGEGQGHLSQKKTVTIPSGSTLAFRVAQLVIDSDLDVLLFPDKKQRTFQPPATGHKRSTSEGAWPQLPSGLSMMRCLHNFLTDGVPAEGAFTEDFQGLRAEVETISKELLLLEGLEGVLRDQLALRALEEALEQGQSLGPVEPLDGPAGAVLECLVLSSGMLVPELAIPVVYLLGALTMLSETQHKLLAEALESQTLLGPLELVGSLLEQSAPWQERSTMSLPPGLLGNSWGEGAPAWVLLDECGLELGEDTPHVCWEPQAQGRMCALYASLALLSGLSQEPH,binds
3,GST-GSDMD truncation lacking aa 350-368 (natural protein) MGSAFERVVRRVVQELDHGGEFIPVTSLQSSTGFQPYCLVVRKPSSSWFWKPRYKCVNLSIKDILEPDAAEPDVQRGRSFHFYDAMDGQIQGSVELAAPGQAKIAGGAAVSDSSSTSMNVYSLSVDPNTWQTLLHERHLRQPEHKVLQQLRSRGDNVYVVTEVLQTQKEVEVTRTHKREGSGRFSLPGATCLQGEGQGHLSQKKTVTIPSGSTLAFRVAQLVIDSDLDVLLFPDKKQRTFQPPATGHKRSTSEGAWPQLPSGLSMMRCLHNFLTDGVPAEGAFTEDFQGLRAEVETISKELELLDRELCQLLLEGLEGVLRDQLALRALEEALEQGQSLGPVEPLDGPAIPVVYLLGALTMLSETQHKLLAEALESQTLLGPLELVGSLLEQSAPWQERSTMSLPPGLLGNSWGEGAPAWVLLDECGLELGEDTPHVCWEPQAQGRMCALYASLALLSGLSQEPH,binds
4,GST-GSDMD truncation lacking both aa 302-310 and aa 350-368 (natural protein) MGSAFERVVRRVVQELDHGGEFIPVTSLQSSTGFQPYCLVVRKPSSSWFWKPRYKCVNLSIKDILEPDAAEPDVQRGRSFHFYDAMDGQIQGSVELAAPGQAKIAGGAAVSDSSSTSMNVYSLSVDPNTWQTLLHERHLRQPEHKVLQQLRSRGDNVYVVTEVLQTQKEVEVTRTHKREGSGRFSLPGATCLQGEGQGHLSQKKTVTIPSGSTLAFRVAQLVIDSDLDVLLFPDKKQRTFQPPATGHKRSTSEGAWPQLPSGLSMMRCLHNFLTDGVPAEGAFTEDFQGLRAEVETISKELLLLEGLEGVLRDQLALRALEEALEQGQSLGPVEPLDGPAIPVVYLLGALTMLSETQHKLLAEALESQTLLGPLELVGSLLEQSAPWQERSTMSLPPGLLGNSWGEGAPAWVLLDECGLELGEDTPHVCWEPQAQGRMCALYASLALLSGLSQEPH,binds
5,HNFLTDGVPAE (domain or fragment) [GST-tagged GSDMD linker containing amino acids 270-280],binds
6,MMRCLHNFLTDGVPAEGAFT (domain or fragment) [GST-tagged GSDMD linker containing amino acids 265-284],binds
7,PSGLSMMRCLHNFLTDGVPAEGAFTEDFQGL (domain or fragment) [GST-tagged GSDMD linker containing amino acids 260-290],binds
